In IntAct's records for PubMed 16648636:

B1: Monothiol glutaredoxin-4 (Saccharomyces cerevisiae), P32642 (parent)
chain: MTVVEIKSQDQFTQLTTTNAANKLIVLYFKAQWADPCKTMSQVLEAVSEKVRQEDVRFLSIDADEHPEISDLFEIAAVPYFVFIQNGTIVKEISAADPKEFVKSLEILSNASASLANNAKGPKSTSDEESSGSSDDEEDETEEEINARLVKLVQAAPVMLFMKGSPSEPKCGFSRQLVGILREHQIRFGFFDILRDENVRQSLKKFSDWPTFPQLYINGEFQGGLDIIKESIEEDPEYFQHALQ
partner: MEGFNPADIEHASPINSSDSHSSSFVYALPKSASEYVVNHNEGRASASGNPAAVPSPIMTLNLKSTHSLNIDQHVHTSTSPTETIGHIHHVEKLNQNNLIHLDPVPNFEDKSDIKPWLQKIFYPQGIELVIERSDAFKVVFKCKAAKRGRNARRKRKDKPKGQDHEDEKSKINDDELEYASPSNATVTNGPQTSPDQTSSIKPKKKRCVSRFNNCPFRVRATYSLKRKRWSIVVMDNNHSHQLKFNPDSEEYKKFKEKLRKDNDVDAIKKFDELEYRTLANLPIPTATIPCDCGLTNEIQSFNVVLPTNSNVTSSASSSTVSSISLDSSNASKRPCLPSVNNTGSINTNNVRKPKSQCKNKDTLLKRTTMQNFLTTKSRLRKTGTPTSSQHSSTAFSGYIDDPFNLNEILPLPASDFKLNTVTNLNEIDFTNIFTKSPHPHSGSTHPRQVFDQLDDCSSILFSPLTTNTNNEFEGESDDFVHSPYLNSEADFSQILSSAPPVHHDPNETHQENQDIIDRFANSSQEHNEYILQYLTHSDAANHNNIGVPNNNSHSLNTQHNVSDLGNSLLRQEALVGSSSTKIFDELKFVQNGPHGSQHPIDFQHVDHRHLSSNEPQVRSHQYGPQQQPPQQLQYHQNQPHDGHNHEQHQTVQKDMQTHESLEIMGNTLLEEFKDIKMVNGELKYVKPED
B2: Monothiol glutaredoxin-3 (Saccharomyces cerevisiae), Q03835 (parent)
chain: MPVIEINDQEQFTYLTTTAAGDKLIVLYFHTSWAEPCKALKQVFEAISNEPSNSNVSFLSIDADENSEISELFEISAVPYFIIIHKGTILKELSGADPKEYVSLLEDCKNSVNSGSSQTHTMENANVNEGSHNDEDDDDEEEEEETEEQINARLTKLVNAAPVMLFMKGSPSEPKCGFSRQLVGILREHQVRFGFFDILRDESVRQNLKKFSEWPTFPQLYINGEFQGGLDIIKESLEEDPDFLQHALQS
partner: B1 partner

Variants of: B1
Conditions: with aft1_yeast AFT1, P22149

effect of a mutation on the interaction	Variant
disrupting interaction	C171S

Variants of: B2
Conditions: with aft1_yeast AFT1, P22149

effect of a mutation on the interaction	Variant
disrupting interaction	C176S
